Test: yeast display, Sf9 membrane polyspecificity reagent, FACS + sequencing; frameworks hold sequencing errors
Procedure, shortened: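 A synthetic nanobody library was expressed on Saccharomyces cerevisiae BJ5465 by galactose induction for 36–48 hours. The library was stained for 1 hour at 4 °C with 10% biotinylated, detergent-solubilized Sf9 membrane reagent and enriched with streptavidin microbeads before FACS. Low and high (top ~1%) gates were set on anti-HA fluorescence for expression and streptavidin fluorescence for reagent binding, and each polyreactivity label reflects the gate of origin.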

| Sequence | polyreactivity (PSR sort gate) |
| --- | --- |
| QVQIVESGRGLVQAGGSLRLSCAASGSIFHPKAMGWYRQAPGKERELVAAITSGGGSTYYADSVKVRYTISRDNAKNTVYLQMNSLKPEDTAVYYCNKVFVLPYKFVAWFDYWGQGTQVTVSS | low polyreactivity |
| QVQIVESVGRLVQAGCSLRLSCDASGRIFGTNAKGWYSQAPGKDRELFAAINGSDSSTYYADSVKGRFTISRDNAKNSDYLQMNSLKPEDNAVYYCNADWSRAPERSTYGYDYWGHGTQVTVSS | low polyreactivity |
| QVQIVETGGGLVQAGGSLRISCAASGSTLIRNVMGWYRQAPGKERELVAAINTRGTTTYYADSVKGRFTISRDNAKNTVYLQMNSLKPEDTAVYYCAAYAYSAYSPDGQRSRYYYWGLGTQVTVSS | high polyreactivity |
| QVQIVETGGGLVQAGGSLRLSCAASGRIFFRNPMGWYRPAPRKEREFVAAINWSGGSTYYADSVKGRFTISRDNAKNTVYLQMNSLKPEDTAVYYCAARGSRGGRRGATASMDYWGQGTQVTVSS | high polyreactivity |
| QVQLAESGGGLVQAGGSLRLSCAASGGTIGVNAMGWYRQAPGKERELVARISRIGASTHYADSVKGRFTISRDNAKNTVYLMMNSLKPEDTAVYYCAKSNGTPGNFGYWGQGTQVTVSS | low polyreactivity |
| QVQLAESGGGLVQAGVSLRISCAASGSTFSVYAMGWYRQAPGKERELVATIRRGGSTYADSVKGRFTISRDNAKITVYLQMNRLKPEDTAVYYCASDAYVSYQPMDYWGQGTQVTVSS | high polyreactivity |
| QVQLEDSGGGLVQAGARLRLSCAASGSTFAQNAMGRYRQAPGKERELVAAITYSGGSTYYADSVKGRFSISRDNAKNTVYLQMNSLKPEDTAVYYCAADVWWSYYRYDYWGQATQVTVSS | low polyreactivity |
| QVQLEDSGGGLVQAGGRLRLSCAASGYIFSDYAMGWYRQAPGKERELVADIRARGGSTYYADSVKGRFTISRDKAQNTVYLQMNSLKPEDTAVYYCNVEDPFYSGVVEFDYWGQGTQVTVSS | low polyreactivity |
| QVQLEDSGGGLVQAGGRLRLTCAASGSIFSLNAMGWSRKAPGKERELVAAINSGGTTNYADSVKGRFTISRDNAKNTVYLQMNSLKPEDSAVYYCATDGYYYYYRVYKFDYWGLGTQVTVSS | low polyreactivity |
| QVQLEDSGGGLVQAGGSLRLSCAASGITVFYYAMGWSRQAPGKERELVATMSWGGDSTYSADSVKGRFTISRDNAKNTVYLQMNSLKPEDTAVYYCAARYWFFRFWYDYWGQGTQVTVSS | high polyreactivity |
| QVQLEDSGGGLVQAGGSLRLSCAASGSTFPLNAMGWYRQAPGKERELVASINFGGGTTYYADSVKGRFTISRDNAMNTVYLQMNSLKPEDTAVYYCAADVYQEFGYWGQGTQVTVSS | high polyreactivity |
| QVQLEDSGGGLVQAGGSLRLTCAASGRIFYPNVIGRNRQAPGKERELVAAIRTSGTGTYYADSVKGRFTISRDNAMNNVYLQMNSQKTQDTAGYYCAADYGYNRYWWWDWSYEYGYEYWGQGTQVTVSS | high polyreactivity |
| QVQLEEKRRGLVQAGGSLRLSCASSGRTFVTNAMGRYRQAPGKERELVAAISSSGGSTYYADSVKGRFTISRDNAMNTVYLQMNSLKPEDTAVYYCAVAGQTKGQYDYWGQGTQVTVSS | low polyreactivity |
| QVQLEESAGGLVQAGGSLRLSCAASGRIFTGSNVMVWYRQSPGKETEFVAVINSGGGSTYYADSVKGRFTISRDNAKNTVFLQMNSLKPEDTAVYYCAADVGGWGYYYWGQGTQVTVSS | low polyreactivity |
| QVQLEESAGGLVQAGGSLRLSCAASGSIFRVYGMGWYRQAPGKVTELVASITYRGGNTYYADSVKGRFTISRDNAKNTVYVQMNSLKPEDTAVFDCARSGYQKVGGFRSDYWGQGTEVTVSS | low polyreactivity |
| QVQLEESCGGLVQAGGSLRLSCAASGSIFGTYAMGLYRHAPGKEREFVADISGIGTSTYYADSVKGRFTISRDNAKNTVYLQMNSLKPEDTAVYYCAAESFDTVEYDYWGQGTQVTVSS | low polyreactivity |
| QVQLEESGAGLVQARGSLRLSCAASGRTFIWNAMGWYRQAPGKERELVAAISSRGGRTYYADSVKGRFTISRDNAKNTVYLQMNILKPEDTAVYYCAAYYITFIGRGYGYWGQGTQVTVSS | high polyreactivity |
| QVQLEESGGALFQAGGSIRLSCAASGYTFDAYAMGWYRQAPGKERELVADINYSVGSTTYADSVKGRFTISRDNAKNTVYLQMNSLKTEDTAVYYCAAQGTWYAWDYDYWGQGTQVTVSS | low polyreactivity |
| QVQLEESGGGIVQAGGSLRLSCAASGGIFGTYAMGWYRQAPRKERELVASISSDTSTTYADSVKGRFTISRDNAKNTVYLQMNSLKAEDTAVYYCAAGSDYDDDYWGQGTQVTVSS | high polyreactivity |
| QVQLEESGGGIVQAGGSLRLSCAASGRTCSNYAMGWNRQAPGKERQLVASIRSSGTSTYYADSVKGRFTISRDIAKNTVYLKMNSLKPEDTAVYYCAKRYFTWSSTYNYWGQGTQVTVSS | high polyreactivity |
| QVQLEESGGGIVQAGGSLRLSCAASGSTFNYYAMGWYRQAPGKERELVAAINSNGGSTYYADSVKGRFTISRDNAKNTVYLQMNSPKPEDTAVYLCAADISPYDYDYWGQGTQVTVSS | high polyreactivity |
| QVQLEESGGGIVQAGGSLRLSCAASGSTFVLNAMGWYRKAPGKERELVAAITRDGRTYYADSVKGRFTISRDNAKNTVYLQMNSLKPEDTAVYYCARPARYSYGDGYWGQGTLVTVSS | low polyreactivity |

| Sequence | polyreactivity (PSR sort gate) |
| --- | --- |
| QVQLEESGGGIVQAGGSLRLSCASSGFIFKAYAMVWSRQAPGKERDLVAVITGSSGRTYADSVKGRFTISRDNAKNTVYLQMNSLKPEDTAVYYCAADLRKSKYRYWRRYDYWGQGTQVTVSS | high polyreactivity |
| QVQLEESGGGIVQAGGTLRLTCAASGRIYATNAMGWSRQAPGKERELVATITRSAGRTYYADSVKGRFTISGDNAKNTVYLQMNSLKPEDTAVYYCAASYWDTEPGYREYDYWGQGTEVTVSS | low polyreactivity |
| QVQLEESGGGLEQAGGSLRLSCAATGSIFNFYAMAWYIRAPGKERELVAAITRSGGSTYYADSVKGRFTISRDNAKNTVYLQMNSLIPEDTAVYYCSAASRKRTSREPLDYWGQGTQVTVSS | high polyreactivity |
| QVQLEESGGGLFQAGGSLRLSCAASGTTQNGYTMGWYRQAPGKEREMVATINRGSSTHYADSVKGRFTISRDNAKNTVYLQMNSLKPEDTAVYYCNKRYPLGTEYYYLGQGTQVTVSS | high polyreactivity |
| QVQLEESGGGLGQAGGSLRLSCAASGSTFTVNGKGWYRQPPGKERELVASITWSGGSTYYADSVKGRFTLSRDNAKYTVYLQMNSLKPEDTAVYYCAADEKLYITGYDYWGQGTQVTVSS | low polyreactivity |
| QVQLEESGGGLLKEGGSLRLSCAASGFTFDGYAMGWYRQAPGKERELVAVITSGGSTKYADSVKGRFTISRDNAKNTVYLQMNSLKPEVTAVYNCNVVGGRYLYSAYDYWGHGTQVTVSS | low polyreactivity |
| QVQLEESGGGLVKAGGSIRLSCAASGLIFYSYAMVWYRHAPGKERELVAVITRSGGNTNYADSVKGRFTISRDNAKNTVYLQMNSRKPEDTAVYYCATRGIWKKVPYYYWGQGTQVTVSS | high polyreactivity |
| QVQLEESGGGLVKAGGSLSLSCAASGRTFYSYAMGWYRQAPGKERELVAAISAGGSTYYADSVQGRFTSSRDNAMNTLNLQMTSLKPEDTAVYYCAATYSYYYARYHYWGQGTQVTVSS | high polyreactivity |
| QVQLEESGGGLVQAGASHRLSCAASGITFYWYAMGSYRQAPGKERELVAGISQSGSLTYYADSVKRRFTISRDNAKNTVYLQMKSLKPEDSAVYYCAARVRWSPSRTFEYWGQGSQVTVSS | high polyreactivity |
| QVQLEESGGGLVQAGASLRLSCAASGRTIAHYAMGWYRQAPGKERELVAAITRGGGTYYADSVKGRFTISRDNAKHSVYLQMNSLKPEDTAVYYCAADHSRYGYPAKTMDYWGQCTQVTVSS | low polyreactivity |
| QVQLEESGGGLVQAGASLRLSCDASGSIFKKYAMGWYRPAPGKEWELVPAITRGTYYADSVKGRFTISRDNAKNTVYLQMNSLKPEDTAVYYCNREFWGRGYYRVRGEYDYWGQGTQVTVSS | low polyreactivity |
| QVQLEESGGGLVQAGGRLRLSCAASGIIFEYYAMGGYRQAPGTERELVAAIFSGGSTYYADSVKGRFTISGDNAKNNVYLQMNSLKPEDTAVYYCAADYFAWGQGTQVTVSS | high polyreactivity |
| QVQLEESGGGLVQAGGRLRLSSAASGRTFMPNGMGWYRQAPGKERELVAAISWRGGSTYYADSVKGRFTISRDNAKNTVYLQMNSLKPEDTAVYYCNARVSRQYDYWGQGTEVTVSS | low polyreactivity |
| QVQLEESGGGLVQAGGSHRLICAASGSTFEYYAMGWYRQAPGKERELVAAINGIGGSTTYADSVKGRFTISRDTAKYTVYLQMNSLKPEDTAVYYCNADVARSKSQASAYDYWGQGTQVNVSS | low polyreactivity |
| QVQLEESGGGLVQAGGSHRLSCAASGSTIYAYTMGWYRQAPGKERELVARISGRGGSTYYADSVKGRFTISRDNAKNTVYLQMNSLKQEDTAVYYCAARRKFDYWGQGTQVTVSS | high polyreactivity |
| QVQLEESGGGLVQAGGSLPLSCASSGRIFCVYAMGWYRQAPGKESELVATITSGGSTSYADSVKGRFTISRDNANYTVYLLMNSLKPEDTAVYYCNGPYSFFWQQMNYWGHGTQVTVSS | low polyreactivity |
| QVQLEESGGGLVQAGGSLRISCSASGFNFRYYTMGWYRQAPGKERELVAAITSRGGSTYYADSLKGRFTISRDIAKNTVYLQMNSLKPEDTAVYYCATTSWGYEYWGQGTEVTVSS | high polyreactivity |
| QVQLEESGGGLVQAGGSLRLICAASGIIFYVNAMGWYRQAPGKERELVAAITFGGDSTYYADSVKGRFTISRDNAKNTVYLQMNSLKPEDTAVYYCATDGDPAYPEMEYWGQGTQVTVSS | low polyreactivity |
| QVQLEESGGGLVQAGGSLRLICAASGRTCGSNTMGWYRQAPGKERELVAASTISCGSTYYADSVKGRFTFSRDNAKNTVYLQMNSLKPDVTALDYCATRLWGQGGGRTTSYMYYWGQGTQVTVSS | high polyreactivity |
| QVQLEESGGGLVQAGGSLRLSCAACGSIFDNYAMGWYRQAPGKERELVAVISKRGGRTYYADSVKGRFTISRDNAKNTVYLQMNSLKPEDTAVYYCANGGQGSTPTSAWAKYDYWVQGTQVTVSS | high polyreactivity |
| QVQLEESGGGLVQAGGSLRLSCAASGFIFAFNAMGWYRQAPGKEREMVATISWNDGGTYYADSVKGRFTISRDNAKNTVYLEMNSLKPEDTAVYYCAADWYLYLDDKYDYWGQGTQVTVSS | low polyreactivity |

From the nanobody polyreactivity screen of Harvey et al. (2022)
